The target of series [1] is HELZ K674N (insect-purified) (human, UniProt P42694 1-1942, K674N). In words: EMSA; no ATP; 5 nM substrate; comparable to WT; EMSA: 10 mM Tris-HCl pH 7.5, 60 mM KCl, 100 ng/ul BSA, 2 U/ul RNaseIN, 1 mM DTT, 30 min on ice, 5% native TAE gel 4 C; pull-down: 10 mM Tris-HCl pH 7.5, 100 mM. The note with it: protein: recombinant; label: Cy5 at 5' end of RNA; 30 bp hybrid S1[16-45] with S2[31-60]; 15 nt 5' RNA overhang; 30 nt 5' and 30 nt 3' DNA overhangs. In general terms: Mobility shift assays separate free from complexed probe on a gel.
Chain of HELZ K674N (insect-purified) (P42694 whole entry K674N): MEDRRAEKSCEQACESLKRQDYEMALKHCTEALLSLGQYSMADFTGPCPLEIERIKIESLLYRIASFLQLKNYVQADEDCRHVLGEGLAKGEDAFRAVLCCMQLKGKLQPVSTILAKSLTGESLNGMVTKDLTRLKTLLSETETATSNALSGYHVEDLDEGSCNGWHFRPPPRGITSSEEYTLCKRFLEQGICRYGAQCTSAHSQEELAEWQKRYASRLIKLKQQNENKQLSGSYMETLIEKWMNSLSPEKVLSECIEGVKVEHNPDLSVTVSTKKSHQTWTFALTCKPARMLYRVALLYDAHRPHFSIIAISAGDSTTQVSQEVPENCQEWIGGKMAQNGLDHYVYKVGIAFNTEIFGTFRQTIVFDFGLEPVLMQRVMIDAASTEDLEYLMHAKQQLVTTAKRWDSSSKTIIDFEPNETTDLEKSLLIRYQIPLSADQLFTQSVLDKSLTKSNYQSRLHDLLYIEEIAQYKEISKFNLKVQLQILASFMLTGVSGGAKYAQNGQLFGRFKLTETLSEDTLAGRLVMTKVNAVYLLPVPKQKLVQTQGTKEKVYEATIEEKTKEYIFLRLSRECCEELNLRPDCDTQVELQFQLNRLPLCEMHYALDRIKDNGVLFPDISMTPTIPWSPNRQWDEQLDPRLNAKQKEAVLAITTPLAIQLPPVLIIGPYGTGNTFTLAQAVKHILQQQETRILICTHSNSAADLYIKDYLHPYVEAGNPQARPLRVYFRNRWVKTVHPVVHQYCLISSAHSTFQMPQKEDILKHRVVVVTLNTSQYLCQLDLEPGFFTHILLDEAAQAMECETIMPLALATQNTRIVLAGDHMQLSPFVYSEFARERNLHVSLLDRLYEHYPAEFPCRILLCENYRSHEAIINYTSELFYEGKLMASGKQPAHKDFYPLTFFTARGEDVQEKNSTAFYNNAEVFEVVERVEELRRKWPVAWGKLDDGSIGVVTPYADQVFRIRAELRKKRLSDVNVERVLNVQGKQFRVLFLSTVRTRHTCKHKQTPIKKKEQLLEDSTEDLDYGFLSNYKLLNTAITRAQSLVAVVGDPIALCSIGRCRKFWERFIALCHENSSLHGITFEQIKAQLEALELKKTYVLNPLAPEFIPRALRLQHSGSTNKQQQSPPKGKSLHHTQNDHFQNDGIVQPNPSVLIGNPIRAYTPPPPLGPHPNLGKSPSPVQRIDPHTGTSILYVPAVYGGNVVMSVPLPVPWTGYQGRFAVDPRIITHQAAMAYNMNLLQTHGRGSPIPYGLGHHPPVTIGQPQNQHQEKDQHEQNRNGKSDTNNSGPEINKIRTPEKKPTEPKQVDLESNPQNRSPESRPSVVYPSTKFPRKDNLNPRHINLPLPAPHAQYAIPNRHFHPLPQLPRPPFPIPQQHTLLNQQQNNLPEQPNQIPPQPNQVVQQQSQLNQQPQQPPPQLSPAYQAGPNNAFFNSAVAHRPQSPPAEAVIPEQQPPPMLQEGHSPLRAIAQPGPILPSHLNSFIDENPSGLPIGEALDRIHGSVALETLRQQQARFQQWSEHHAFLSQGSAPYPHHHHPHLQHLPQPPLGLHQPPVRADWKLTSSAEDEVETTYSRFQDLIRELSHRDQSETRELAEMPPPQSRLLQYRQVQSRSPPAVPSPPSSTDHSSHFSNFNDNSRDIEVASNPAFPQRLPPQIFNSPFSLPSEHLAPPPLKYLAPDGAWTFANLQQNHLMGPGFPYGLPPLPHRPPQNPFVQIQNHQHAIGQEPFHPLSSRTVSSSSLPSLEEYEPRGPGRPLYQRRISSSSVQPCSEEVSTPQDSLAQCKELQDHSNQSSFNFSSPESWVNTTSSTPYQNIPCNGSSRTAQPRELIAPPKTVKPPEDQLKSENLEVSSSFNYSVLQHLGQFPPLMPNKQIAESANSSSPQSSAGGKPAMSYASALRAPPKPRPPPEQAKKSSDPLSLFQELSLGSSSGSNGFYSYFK

In series [2] the target is HELZ WT (insect-purified) (human, UniProt P42694 1-1942). In words: EMSA; no ATP; 5 nM substrate; EMSA: 10 mM Tris-HCl pH 7.5, 60 mM KCl, 100 ng/ul BSA, 2 U/ul RNaseIN, 1 mM DTT, 30 min on ice, 5% native TAE gel 4 C; pull-down: 10 mM Tris-HCl pH 7.5, 100 mM. The note with it: protein: recombinant; label: Cy5 at 5' end of RNA; 30 bp hybrid S1[16-45] with S2[31-60]; 15 nt 5' RNA overhang; 30 nt 5' and 30 nt 3' DNA overhangs.
Chain of HELZ WT (insect-purified) (P42694 whole entry): as the sequence (P42694 whole entry K674N) above, with N674K counted along it

We go through 1 molecule from article PMC13396810, “HELZ is a RNA-DNA helicase that resolves R loops to facilitate homologous recombination repair”.

B1: RNA/DNA hybrid with 5' ssRNA overhang (EMSA) (DNA:RNA)
RNA: UCGUAGCUCGGGAGUGCACCAGAUUCAGCAAUUAAGCUCUAAGCC
DNA: GTCACTTGATAAGAGGTCATTTGAATTCATGGCTTAGAGCTTAATTGCTGAATCTGGTGCTGGGATCCAACATGTTTTAAATATGCAATG
On to B1, for which the binding result in series [1] and in series [2] was “binds” each time.
